{"source": "IntAct's records for PubMed 25517094"}
{"target": "SH3GL1, Q99961-1", "sequence (Q99961 whole entry)": "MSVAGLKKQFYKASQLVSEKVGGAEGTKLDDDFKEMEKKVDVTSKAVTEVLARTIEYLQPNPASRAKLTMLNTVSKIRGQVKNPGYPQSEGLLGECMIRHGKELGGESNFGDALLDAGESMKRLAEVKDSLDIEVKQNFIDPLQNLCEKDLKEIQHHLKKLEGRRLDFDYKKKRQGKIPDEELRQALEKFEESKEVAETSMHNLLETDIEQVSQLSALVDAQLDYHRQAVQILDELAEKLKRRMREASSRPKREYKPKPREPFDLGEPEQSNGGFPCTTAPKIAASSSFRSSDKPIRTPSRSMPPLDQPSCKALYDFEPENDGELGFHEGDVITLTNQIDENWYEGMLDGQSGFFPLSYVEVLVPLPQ"}
{"substance": "Beta-1 adrenergic receptor (Mus musculus), P34971 P272A;P273A", "effect of a mutation on the interaction": "decreasing interaction strength"}
{"substance": "Beta-1 adrenergic receptor (Mus musculus), P34971 P272A;P273A;P283A;P284A", "effect of a mutation on the interaction": "disrupting interaction strength"}
{"substance": "Beta-1 adrenergic receptor (Mus musculus), P34971 R271A", "effect of a mutation on the interaction": "decreasing interaction strength"}
{"substance": "Beta-1 adrenergic receptor (Mus musculus), P34971 R298E;R299E", "effect of a mutation on the interaction": "decreasing interaction strength"}
